The term Kd denotes the constant that tells how readily two partners part at equilibrium. Read a high Kd as lower affinity. As a reminder, the EC50 (read off the curve) is the concentration at which the effect is half-maximal. Read a low EC50 (read off the curve) as a more potent agent.

Substitutions are numbered along the chain they refer to.

This note sets out measurements from US20240034815A1 (Xencor, published 2024).

The target in experiment [1] is T1, cell surface GPC3 on GPC3-expressing cell lines (HepG2 GPC3^high, Huh7 GPC3^med) (UniProt P51654 25-554). Briefly: cell-based or functional assay.
The target in experiment [2] is T2, His-tagged human GPC3 (human, UniProt P51654 25-559, limits assumed).
T2 construct: Captured on HIS1K sensors in the Octet assay; also called human GPC3 antigen; Glypican 3; not shown: His tag
Put plainly: Octet (BLI); His-tagged GPC3 captured on HIS1K sensors, bsAb in solution. As to the method:
(§1) After humanization, GPC3 binding arms were engineered with single point mutations in the variable light domain with the aim to create a ladder of GPC3 binding affinity, illustrative sequences for which are depicted in FIG. 13. 73 variable light domain variants were engineered and paired with GPC3-A H1.1 (see Example 3C for description of GPC3-A H1.1 variant). The GPC3-A variants were engineered in the 1+1 Fab-scFv-Fc bsAb format and binding for GPC3 antigen was measured using Octet, a BioLayer Interferometry (BLI)-based method. Experimental steps for Octet generally include the following: Immobilization (capture of ligand to a biosensor); Association (dipping of ligand-coated biosensors into wells containing the analyte); and Dissociation (returning of biosensors to well containing buffer). For ease of clinical development (e.g. by investigating the therapeutics in model animals), it is useful for the binding domains to be cross-reactive for cynomolgus antigen; therefore, binding to both human and cynomolgus GPC3 antigen were investigated. His-tagged human and cynomolgus GPC3 were captured on HIS1K sensors then dipped into multiple concentrations of the bispecific antibodies. The resulting dissociation constant (KD) are depicted in FIG. 23.
Background: BLI is a label-free optical method that tracks binding on a fibre tip over time.

Experiment [3] has as its target T2, His-tagged human GPC3. Briefly: binding assay not named for this figure; Octet (BLI) is the method of Example 2B. The method, then:
as §1

Experiment [4] deals with T3, His-tagged cynomolgus GPC3 (cynomolgus, UniProt A0A2K5VK50 24-558).
T3 construct: Captured on HIS1K sensors in the Octet assay; also called cynomolgus GPC3 antigen; cyno GPC3; not shown: His tag
The experiment is described as above. The method, then:
as §1

In experiment [5] the target is T2, His-tagged human GPC3. Put plainly: affinity label of the GPC3 binding domain; Octet (BLI) of Example 2. As to the method: as §1
Experiment [6] addresses T2, His-tagged human GPC3. Put plainly: Octet (BLI), His-tagged GPC3 captured on HIS1K sensors, bsAb as analyte. As to the method: as §1
In experiment [7] the target is T3, His-tagged cynomolgus GPC3. The description is as above. As to the method: as §1
For experiment [8], the target named is T1, cell surface GPC3 on GPC3-expressing …. Briefly: flow cytometry on HepG2 (GPC3high) cells, anti-human Fc secondary. As to the method:
(§2) Next, binding of the variants to cell surface GPC3 was investigated. Illustrative affinity variants H1.1_L1.29, H1.1_L1.16, and H1.1_L1.31 were engineered in the 1+1 Fab-scFv-Fc format. […] Cells were then washed and stained with a secondary antibody (typically anti-human Fc AlexaFlour647) for 1 hr at 4° C. After 2 more washes, cells were analyzed by flow cytometry.
In general terms: Flow cytometry measures light scatter and fluorescence of single cells or particles in a stream.

Experiment [9] shares this target. Put plainly: flow cytometry on HepG2 (GPC3high) cells, secondary antibody stain. The method, then:
as §2

T1 sequence (P51654 25-554 limits assumed): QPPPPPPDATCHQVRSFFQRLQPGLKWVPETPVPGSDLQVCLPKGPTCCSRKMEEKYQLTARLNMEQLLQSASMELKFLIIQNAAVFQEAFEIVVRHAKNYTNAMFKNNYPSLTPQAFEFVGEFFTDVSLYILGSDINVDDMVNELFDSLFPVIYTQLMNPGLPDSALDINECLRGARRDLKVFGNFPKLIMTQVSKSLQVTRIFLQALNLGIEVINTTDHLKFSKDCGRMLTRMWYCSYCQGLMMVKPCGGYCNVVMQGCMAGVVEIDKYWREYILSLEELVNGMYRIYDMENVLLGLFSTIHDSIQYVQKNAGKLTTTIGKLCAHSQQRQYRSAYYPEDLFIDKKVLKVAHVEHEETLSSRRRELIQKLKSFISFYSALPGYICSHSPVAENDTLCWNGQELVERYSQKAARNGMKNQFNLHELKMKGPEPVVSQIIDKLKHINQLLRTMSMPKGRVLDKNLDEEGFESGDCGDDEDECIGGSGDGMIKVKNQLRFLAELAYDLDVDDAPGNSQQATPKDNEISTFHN
T2 sequence (P51654 25-559 limits assumed): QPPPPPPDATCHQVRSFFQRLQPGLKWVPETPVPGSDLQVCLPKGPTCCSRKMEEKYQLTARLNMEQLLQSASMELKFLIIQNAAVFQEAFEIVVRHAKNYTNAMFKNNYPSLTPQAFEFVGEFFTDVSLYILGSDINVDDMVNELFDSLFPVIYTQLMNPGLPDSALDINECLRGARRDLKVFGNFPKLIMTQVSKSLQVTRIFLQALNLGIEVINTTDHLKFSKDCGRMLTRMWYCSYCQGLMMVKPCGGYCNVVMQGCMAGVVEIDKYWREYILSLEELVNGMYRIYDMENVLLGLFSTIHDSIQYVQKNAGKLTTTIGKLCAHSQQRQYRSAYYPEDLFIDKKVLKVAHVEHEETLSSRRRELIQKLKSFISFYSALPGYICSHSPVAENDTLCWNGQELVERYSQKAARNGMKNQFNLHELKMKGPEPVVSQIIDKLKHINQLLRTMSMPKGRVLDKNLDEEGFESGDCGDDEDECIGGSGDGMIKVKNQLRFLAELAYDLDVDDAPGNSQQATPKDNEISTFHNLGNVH

B1: XENP34920 (bispecific antibody)
heavy 1: QVQLVQSGAEVKKPGASVKVSCKASGYTFTDYEMHWVRQAPGQGLEWMGALEPKTGDTAYSQKFQGRVTMTADKSISTAYMELSRLRSDDTAVYYCTRFYSYTYWGQGTLVTVSSASTKGPSVFPLAPSSKSTSGGTAALGCLVKDYFPEPVTVSWNSGALTSGVHTFPAVLQSSGLYSLSSVVTVPSSSLGTQTYICNVNHKPSDTKVDKKVEPKSCDKTHTCPPCPAPPVAGPSVFLFPPKPKDTLMISRTPEVTCVVVDVKHEDPEVKFNWYVDGVEVHNAKTKPREEEYNSTYRVVSVLTVLHQDWLNGKEYKCKVSNKALPAPIEKTISKAKGQPREPQVYTLPPSREEMTKNQVSLTCDVSGFYPSDIAVEWESDGQPENNYKTTPPVLDSDGSFFLYSKLTVDKSRWEQGDVFSCSVMHEALHNHYTQKSLSLSPGK
heavy 2: QVQLVQSGAEVKKPGASVKVSCKASGYTFTDYEMHWVRQAPGQGLEWMGALEPKTGDTAYSQKFQGRVTMTADKSISTAYMELSRLRSDDTAVYYCTRFYSYTYWGQGTLVTVSSASTKGPSVFPLAPSSKSTSGGTAALGCLVKDYFPEPVTVSWNSGALTSGVHTFPAVLQSSGLYSLSSVVTVPSSSLGTQTYICNVNHKPSNTKVDKKVEPKSCGGGGSGGGGSQAVVTQEPSLTVSPGGTVTLTCGSSTGAVTTSNYANWVQQKPGKSPRGLIGGTNKRAPGVPARFSGSLLGGKAALTISGAQPEDEADYYCALWYSNHWVFGGGTKLTVLGKPGSGKPGSGKPGSGKPGSEVQLVESGGGLVQPGGSLRLSCAASGFTFSTYAMNWVRQAPGKGLEWVGRIRSKANNYATYYADSVKGRFTISRDDSKNTLYLQMNSLRAEDTAVYYCVRHGNFGDSYVSWFAYWGQGTLVTVSSGGGGSGGGGSKTHTCPPCPAPPVAGPSVFLFPPKPKDTLMISRTPEVTCVVVDVKHEDPEVKFNWYVDGVEVHNAKTKPREEQYNSTYRVVSVLTVLHQDWLNGKEYKCKVSNKALPAPIEKTISKAKGQPREPQVYTLPPSREQMTKNQVKLTCLVKGFYPSDIAVEWESNGQPENNYKTTPPVLDSDGSFFLYSKLTVDKSRWQQGNVFSCSVMHEALHNHYTQKSLSLSPGK
light: DVVMTQSPLSLPVTLGQPASISCRSSQSLVHSSGNTYLHWYQQRPGQSPRLLIYKVSNRFSGVPDRFSGSGSGTDFTLKISRVEAEDVGVYFCSQSTHVPPTFGSGTKLEIKRTVAAPSVFIFPPSDEQLKSGTASVVCLLNNFYPREAKVQWKVDNALQSGNSQESVTEQDSKDSTYSLSSTLTLSKADYEKHKVYACEVTHQGLSSPVTKSFNRGEC
Consider B1, for which the “EC50 of RTCC (2D RTCC on Incucyte, HepG2, 10:1 effector:target ratio)” value in experiment [1] was below 0.1 µg/mL.

B2: XENP36941 (GPC3-A H1.1_L1.29 formatted as 1+1 Fab-scFv-Fc with CD3 High-Int #1 scFv) (bispecific antibody)
heavy: B1 heavy 1
scFv-Fc: not shown
light: B1 light with S33N, K55Q, S96N
notes: 1+1 Fab-scFv-Fc, human IgG1 heterodimeric backbone; treated as one molecule; also called [GPC3]H1.1_L1.29
Regarding B2, binding in the experiment with His-tagged human GPC3 [2] was characterised by a dissociation constant (Kd) of 70 nM.

B3: GPC3-A H1.1_L1.69 in the 1+1 Fab-scFv-Fc bsAb format (bispecific antibody)
heavy: B1 heavy 1
scFv-Fc: not shown
light: B1 light with S33N, G34A, K55Q, S96N
notes: also called [GPC3]H1.1_L1.69
As for B3, the figures for the Kd (in the experiment with His-tagged human GPC3 [3]; in experiment [4]; in the experiment with His-tagged human GPC3 [5]) were 150 nM, 150 nM and 70 nM, respectively.

B4: XENP34368_GPC3-A_H1.1__L1.31 (bispecific antibody)
heavy: B1 heavy 1
scFv-Fc: not shown
light: B1 light with S33N, K55Y, S96N
notes: Another XENP number than XENP36140, which has the same GPC3 Fv; copies: 1 + 1 + 1
Take B4: the Kd with His-tagged human GPC3 [6] came to 464 nM; in experiment [7], 485 nM.

B5: GPC3-A H1.1_L1.6 formatted as 1+1 Fab-scFv-Fc with CD3 High-Int #1 scFv (bispecific antibody)
heavy: B1 heavy 1
scFv-Fc: not shown
light: B1 light with S33N, G34T, S96N
notes: 1+1 Fab-scFv-Fc: VH-CH1-hinge-CH2-CH3 chain and VL-CL light chain form the GPC3 Fab, plus an scFv-Fc chain; also called [GPC3]H1.1_L1.6
Turning to B5, in the experiment with His-tagged human GPC3 [2], binding was put at a Kd of 4 nM.

B6: XENP34364_GPC3-A_H1.1__L1.29 (bispecific antibody)
heavy: B1 heavy 1
scFv-Fc: not shown
light: B1 light with S33N, K55Q, S96N
notes: Another XENP number than XENP36941, which has the same GPC3 Fv
B6: the Kd amounted to 70 nM with His-tagged human GPC3 [6] and 73 nM in experiment [7].

B7: XENP36140 (GPC3-A H1.1_L1.31 formatted as 1+1 Fab-scFv-Fc with CD3 High-Int #1 scFv) (bispecific antibody)
heavy: B1 heavy 1
scFv-Fc: not shown
light: B1 light with S33N, K55Y, S96N
notes: 1+1 Fab-scFv-Fc, human IgG1 heterodimeric backbone; treated as one molecule; also called [GPC3]H1.1_L1.31
For B7, the Kd with His-tagged human GPC3 [2] was determined as 400 nM. Also, the “EC50 (read off the curve)” value in [8] and in experiment [9] was around 3 µg/mL in each case.

B8: GPC3-A H1.1_L1.73 in the 1+1 Fab-scFv-Fc bsAb format (bispecific antibody)
heavy: B1 heavy 1
scFv-Fc: not shown
light: B1 light with S33N, G34K, K55Y, S96N
notes: also called [GPC3]H1.1_L1.73
Turning to B8, the Kd amounted to 477 nM in the experiment with His-tagged human GPC3 [3], 550 nM in experiment [4] and 400 nM in the experiment with His-tagged human GPC3 [5].

B9: XENP34365_GPC3-A_H1.1__L1.16 (bispecific antibody)
heavy: B1 heavy 1
scFv-Fc: not shown
light: B1 light
notes: Another XENP number than XENP35843, which has the same GPC3 Fv
For B9, the values for the Kd (in the experiment with His-tagged human GPC3 [6]; in experiment [7]) were 93 nM and 100 nM, respectively.

B10: XENP21971_GPC3-A_H1_L1 (bispecific antibody)
heavy: B1 heavy 1 with E52D
scFv-Fc: not shown
light: B1 light with S33N, S96N
notes: the sheet prints H1_L1; copies: 1 + 1 + 1
For the molecule B10, the Kd (in the experiment with His-tagged human GPC3 [6]; in experiment [7]) was 4 nM in each case.

B11: XENP35843 (GPC3-A H1.1_L1.16 formatted as 1+1 Fab-scFv-Fc with CD3 High-Int #1 scFv) (bispecific antibody)
heavy: B1 heavy 1
scFv-Fc: not shown
light: B1 light
notes: 1+1 Fab-scFv-Fc, human IgG1 heterodimeric backbone; treated as one molecule; also called [GPC3]H1.1_L1.16
In the case of B11, binding with His-tagged human GPC3 [2] was put at a Kd of 100 nM.
